Measurements published in article PMC12784932, “Keratin 15 promotes a progenitor cell state in basal keratinocytes of skin epidermis” (The Journal of Cell Biology, 2026).

Target: T1, EGFP-K14 WT (human keratin 14) (human, UniProt P02533 1-472)
T1 construct: keratin 14 (K14), human; codon-optimized KRT14 cDNA synthesized by Twist Biosciences; Co-expressed with untagged human K5, its type II copolymerization partner; also called WT K14; source: HeLa, transfected (nucleofection) together with untagged K5, in lysate (detergent-soluble pool)
T1 sequence (looked up): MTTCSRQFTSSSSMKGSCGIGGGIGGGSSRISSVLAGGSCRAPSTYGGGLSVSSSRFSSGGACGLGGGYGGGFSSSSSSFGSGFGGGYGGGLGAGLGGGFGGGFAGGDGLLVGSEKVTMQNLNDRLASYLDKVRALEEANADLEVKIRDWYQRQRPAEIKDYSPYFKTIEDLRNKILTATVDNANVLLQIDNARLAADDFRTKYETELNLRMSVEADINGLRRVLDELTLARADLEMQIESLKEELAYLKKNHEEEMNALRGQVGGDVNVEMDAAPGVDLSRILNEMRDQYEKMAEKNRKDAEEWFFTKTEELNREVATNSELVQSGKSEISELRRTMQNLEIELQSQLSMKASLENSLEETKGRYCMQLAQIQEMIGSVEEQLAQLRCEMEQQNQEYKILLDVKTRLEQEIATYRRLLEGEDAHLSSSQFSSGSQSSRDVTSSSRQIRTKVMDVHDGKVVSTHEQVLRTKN
Assay: co-IP; GFP-Trap Magnetic Agarose (25 μl beads) on 600 μg lysate of HeLa cells cotransfected with untagged K5 and the EGFP-tagged keratin; lysis in 10 mM Tris/Cl pH 7.5, 150 mM NaCl, 0.5 mM EDTA, 0.5% Nonidet P-40 Substitute (detergent-soluble pool); 4°C, 1 h; western blot for endogenous 14-3-3σ; 14-3-3σ signal normalized to GFP
Conditions: partners not purified

fold 14-3-3σ in the immunoprecipitate (normalized to GFP) against the EGFP-K15 WT immunoprecipitate: > 2 fold
B1: 14-3-3σ (stratifin) (natural protein, human (endogenous in HeLa), UniProt P31947 1-248, looked up)
chain: MERASLIQKAKLAEQAERYEDMAAFMKGAVEKGEELSCEERNLLSVAYKNVVGGQRAAWRVLSSIEQKSNEEGSEEKGPEVREYREKVETELQGVCDTVLGLLDSHLIKEAGDAESRVFYLKMKGDYYRYLAEVATGDDKKRIIDSARSAYQEAMDISKKEMPPTNPIRLGLALNFSVFHYEIANSPEEAISLAKTTFDEAMADLHTLSEDSYKDSTLIMQLLRDNLTLWTADNAGEEGGEAPQEPQS
notes: 14-3-3σ / stratifin, endogenous in HeLa cells; also called stratifin/14-3-3σ; endogenous 14-3-3σ; source: endogenous, HeLa lysate; endogenous, fixed HeLa cells
